Experimental data taken from the supplement of paper PMC9170038.

Key:
[1] = test system: K4 kissing-loop RNA reporter; test: apparent KD of K4 kissing-loop reporter; higher = weaker reporter binding; settings: Eterna round: R107;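 further: bound reporter read as fluorescence of individual clusters on recovered sequencing chips by microscopy, with normalized cluster intensities fitted with a binding model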
Description: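 RNA-MaP round R107: designed RNA switches with theophylline, tryptophan, arginine or FMN aptamers are transcribed on-chip within common flanks. They are titrated with a labelled K4 kissing-loop RNA reporter in RNA-MaP buffer (100 mM Tris pH 7.5, 80 mM KCl, 4 mM MgCl2), without ligand or with the indicated ligand. Median apparent KD per design.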

MS2 coat protein = test: apparent KD of MS2 coat protein; designed switch direction (-1 OFF switch, 1 ON switch): -1; higher = weaker reporter binding
How it was run: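 Apparent KD, taken as the median over clusters for each design, was obtained by curve-fitting normalised cluster fluorescence. Designed RNA switches had been transcribed on Illumina chips by stalled E. coli RNA polymerase and titrated with SNAP-549-labelled MS2 coat protein, doubling from 0.7 or 1.5 nM to 3 µM.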

[2] = input ligand: theophylline 20 uM
[3] = input ligand: tryptophan 2.4 mM
[4] = input ligand: microRNA oligo, concentration not stated
[5] = Eterna round: R95, input ligand: FMN 200 uM
[6] = Eterna round: R95, input ligand: microRNA oligo, concentration not stated
[7] = Eterna round: R95, input ligand: none

Sequence	apparent KD of K4 kissing-loop reporter ([1]; input ligand: FMN 200 uM)	apparent KD of K4 kissing-loop reporter ([1]; input ligand: arginine 13.2 mM)	apparent KD of K4 kissing-loop reporter ([1]; input ligand: none)	apparent KD of K4 kissing-loop reporter [1, 2]	apparent KD of K4 kissing-loop reporter [1, 3]	apparent KD of MS2 coat protein (MS2 coat protein; input ligand: FMN 200 uM)	apparent KD of MS2 coat protein (MS2 coat protein; [4])	apparent KD of MS2 coat protein (MS2 coat protein; input ligand: none)	apparent KD of MS2 coat protein (MS2 coat protein; [5])	apparent KD of MS2 coat protein (MS2 coat protein; [6])	apparent KD of MS2 coat protein (MS2 coat protein; [7])
AAAAGAAAGUCGGCCGCCACUCAACGCAGUGAUGUUGCAAGACAGAAGACCAGUGAUGUUGGCCAGAGGACCGGGACAAAAGGCC [Same State Typtophan B GF 4]	591 nM	945 nM	842 nM	435 nM	464 nM						
AAAAGCAGAAAGACGCAUUAAAGAACCGAAGGAGCGCGGAAUUACGCAGGUAGGUCGCGGGAUAAGCGAGUGAUGUUCGCGAAAG [Arginine A Same State; Euphoria Solution]	60.7 nM	105 nM	72.1 nM	89.5 nM	53.6 nM						
AAAAUAAACCAGUGAUGUUGGUGUCCAGAUACCAGCGAUAAAAUUCGCCCUUGGCAGCUGUGGACGUACAAAAUAAGUACGUCCU [MatMod 3 - Jieux - Same State - Theophylline A]	734 nM	555 nM	837 nM	525 nM	674 nM						
AAAAUAAACCAGUGAUGUUGGUGUCCAGAUACCAGCGGUAAAAUCCGCCCUUGGCAGCUGUGGACGUACAAAAUAAGUACGUCCU [MatMod 4 - Jieux - Same State - Theophylline A]	430 nM	321 nM	463 nM	286 nM	358 nM						
AAAAUAAACCAGUGAUGUUGGUGUCUAGAUACCAGCGACAAAAGUCGCCCUUGGCAGCUACGGACGUACAAAAUAAGUACGUCCU [MatMod 9 - Jieux - Same State - Theophylline A]	468 nM	353 nM	472 nM	481 nM	405 nM						
AAAAUAAUCCAGUGAUGUUGGUAUUCAGAUACCAGCGACGAAAGUCGCCCUUGGCAGCUGUGGACGUACAAAAUAAGUACGUCCU	967 nM	657 nM	1060 nM	944 nM	660 nM						
AAAAUUGCGGUCGAUAGAACUUUUUGCUUACGAGGACCGGUACGGCCGCCACUCGAGUCAAGUGAUGUUUGAUUUUCUAUUAUUA [JR_ExcTryptoA_Sub014]	112 nM	166 nM	141 nM	176 nM	98.5 nM						
AAACUCAGUGAUGUUGAGUGGGAGCGGGAUACCAGAUCGCCCAUCAUCCCUUGGCAGCCCGAGCGUCAGAAUACAUUUCAUUUGC [theeternabot_sameState_KL_Theo_A_6]	339 nM	349 nM	349 nM	385 nM	263 nM						
AAAGACUGACUGCAAUUAGCAGUCAGUCAACGAGGACCGGUACGGCCGCCACUCGGGUCCUAGAGUGAUGUUCUAAUAAUAUAAA [AK1.2 SS Tryptophan A]	374 nM	495 nM	319 nM	490 nM	207 nM						
AAAGAUGCGUCGGCCGCCACUGUGAUCUACGAAAGUAGUAUGUAGAUGCAGUGAUGUUGCAUUUUCAGGACCGGGACGUAAGAUG [3rd]	447 nM	362 nM	321 nM	496 nM	211 nM						
AAAGGAUCAGAGAGUGAUGUUCUCUAAUAACGAGGACCGGUACGGCCGCCACUCGAAUAGAUCCAAGUCCUACGAAAAGUAGGAC [Omei inspired 8]	274 nM	217 nM	316 nM	308 nM	210 nM						
AAAGGCAAAGCCCGAGUGAUGUUCGACGAUACCAGCCUCGAUAGAGGCCCUUGGCAGCGUAAAUGAUCAUGAAGCCAAGGAAUAA [whbob_Ex_Theo_A_th67]	352 nM	302 nM	352 nM	260 nM	313 nM						
AAAGGCAUAGCCCGAGUGAUGUUCGACGAUACCAGCCUCGAUAGAGGCCCUUGGCAGCGUAAAUGAUCAUGAAGCCAAGGAAUAA [whbob_Ex_Theo_A_th68]	340 nM	303 nM	391 nM	816 nM	422 nM						
AAAGUGUCAGCACGAGUGAUGUUCGACGAUACCAGCCUCGAUAGAGGCCCUUGGCAGCGUAAAAGUCAAGGGCUGGCACAUAAAA [#SwitchBubble 5 #K4Early]	789 nM	751 nM	1300 nM	494 nM	1440 nM						
AAAGUUGAUGAGUUGGGUAUGUGUUCCGAAGGAGCGAGAAUUAUCUCAGGUAGGUCGCGGAAGAUGAGUGAUGUUCAUCUAUAAA [KL-XArg-A8 #analogue]	147 nM	137 nM	162 nM	144 nM	127 nM						
AAAUAAAAGGCGGCCGCCACUGAACGCCUCCGCGUGGGUAUAUAGUGAUGUUAUAUGGCCGCCUUCAGGACCGGGCCAAAUAAAA [AstrosSSTryB#1]	458 nM	220 nM	339 nM	274 nM	373 nM						
AAAUAAAGCAGUCACCCAGUGAUGUUGGAAGGAGCGUGCGAAAGCACAGGUAGGUCGCCGAUAGGACAAAGUCCAAGUGGCUGCA [#SwitchBubble 30 #K4Early]	625 nM	437 nM	487 nM	297 nM	318 nM						
AAAUCUUUCAGAAGGAGCGUGGAUUAUUCUUAUAUAUUUAUUACGAGUGAUGUUCGUAAUUCACAGGUAGGUCGCUGAUCAAUAA [JR_ExcArginiB_Sub006]	87.5 nM	105 nM	91.1 nM	109 nM	89.8 nM						

Sequence	apparent KD of K4 kissing-loop reporter ([1]; input ligand: FMN 200 uM)	apparent KD of K4 kissing-loop reporter ([1]; input ligand: arginine 13.2 mM)	apparent KD of K4 kissing-loop reporter ([1]; input ligand: none)	apparent KD of K4 kissing-loop reporter [1, 2]	apparent KD of K4 kissing-loop reporter [1, 3]	apparent KD of MS2 coat protein (MS2 coat protein; input ligand: FMN 200 uM)	apparent KD of MS2 coat protein (MS2 coat protein; [4])	apparent KD of MS2 coat protein (MS2 coat protein; input ligand: none)	apparent KD of MS2 coat protein (MS2 coat protein; [5])	apparent KD of MS2 coat protein (MS2 coat protein; [6])	apparent KD of MS2 coat protein (MS2 coat protein; [7])
AAAUUUGCUCAUGAUACCAGCCAGUGAUGUUGGUUGGUCCACCGUGUCCGAACAUUAAGCGGCCCUUGGCAGCAUGAUGCGCGUA [Ininveaen]	129 nM	105 nM	116 nM	143 nM	112 nM						
AAAUUUUCAAGUGAUACCAGACAUUUUUAUUUCUUUAUUUAUGCUAAGUGAUGUUUAGCAGUCCCUUGGCAGCACUAUUUAAUUA [JR_Nu_SSTheophyB_Sub030]	127 nM	174 nM	141 nM	231 nM	144 nM						
AACACUCAGAGAGUGAUGUUCUCUAAUAAACGAGGACCGGUACGGCCGCCACUCGAAUAAGAGUGAGUCCUACGAAAAGUAGGAC [Omei inspired 5 #OpenEnded]	790 nM	726 nM	1050 nM	1120 nM	224 nM						
AACCGUGUGGCGGCCGCCACUAGUCUCCAGUGAUGUUGGAGAGACCACGUAAGUGGUCUCCAACAUAGGACCGGGCCAUAUGGAA [Same State - Tryptophan B (Freestyle 26)]	204 nM	78.5 nM	106 nM	132 nM	259 nM						
AACCUACGAUCACAAUAGUGAUUGUAGGACUAGGAUAUGCUGAAAAGCAGAAGGAGUGAUGUUCCACUCAUGAAUAACAUGAGAA [FmnAX 4 #OpenEnded #K4Late #CoaxialStacking]	594 nM	340 nM	410 nM	324 nM	270 nM						
AACGCUGGUGAAUAACACUAGCGAAAUUCGCGAGGACCGGUACGGCCGCCACUCGCUAACUGCGAGUGAUGUUCGAUAAUAAAAU [Mat - Mod of OpenEnded 3 - D7]	174 nM	125 nM	197 nM	280 nM	122 nM						
AACGUUUUGAGAAGGAGCGCGUUAAGCAGUGAUGUUGCUUUAUUUUAUCAAAUACAUAUAUCGCAGGUAGGUCGCUCAAUACGUA [JR_Nu_SSArginiB_Sub026]	304 nM	218 nM	253 nM	283 nM	230 nM						
UUUUUAUAUGAAGGAUAUACUUAACAUGAGGAUCACCCAUGUGGUGUUGUGAGUGAGUGAGUUUAGUAGAAGGUCAAGUACUUU [JMF's solution 37] (Eterna round: R96, puzzle: Exclusion NG 2)						614 nM	380 nM	574 nM			
UUUUUAUAUGAAGGAUAUACUUAACAUGAGGAUCACCCAUGUGGUGUUGUGAGUGAGUGAGUUUAGUAGAAGGUCAAUUAGUUU [JMF's solution 12] (Eterna round: R96, puzzle: Exclusion NG 2)						363 nM	157 nM	209 nM			
UUUUUAUAUGAAGGAUAUACUUAACAUGAGGAUCACCCAUGUGGUGUUGUGAGUGAGUGAGUUUAGUAGAAGGUCAAUUAUAUU [JMF's solution 13] (Eterna round: R96, puzzle: Exclusion NG 2)						574 nM	316 nM	350 nM			
UUUUUAUAUGAAGGAUAUACUUAACAUGAGGAUCACCCAUGUGGUGUUGUGAGUGAGUGAGUUUAGUAGAAGGUCAAUUCUUUG [JMF's solution 84] (Eterna round: R96, puzzle: Exclusion NG 2)						397 nM	344 nM	347 nM			
UUUUUAUUUUUUUAUUUUGACAUGAGGAUCACCCAUGUCACGAGCAGAUCUUCAUGCAAGCUUUUUGCUCGUCUUAU [Sensor v3 - Turn-off variant 1 - 40] (puzzle: Sensor v3, turn-off variant 1)									58.3 nM	141 nM	98.4 nM
UUUUUCAGGCCAGAUCCUCACAUGAGGAUCACCCAUGUGCUCGUCUGUUUUCGCACUAGCUUUUUUUUGGUAGUGCU [Level Boss var2-15] (puzzle: Sensor v3, turn-off variant 1)									280 nM	28.4 nM	325 nM
UUUUUCAGGCCAGAUCCUCACAUGAGGAUCACCCAUGUGCUCGUCUGUUUUCGCUCUAGCUUUUUUUUGGUAGUGCU [Level Boss var2-16] (puzzle: Sensor v3, turn-off variant 1)									164 nM	31.8 nM	243 nM
UUUUUCGAACAAGCUACGUACAUGAGGAUCACCCAUGUUGGUAGAUUUGAGUAGGUUUGGAUGGAAGCUCGUCUUAU [JR_SV3TOV1_Sub083] (puzzle: Sensor v3, turn-off variant 1)									19.2 nM	44.5 nM	21.4 nM
UUUUUCUCAGGAUAUACAUGAGGAUCACCCAUGUAUAUUAAGAAUAAUACAUGGGAAUGUAGAAGGGAGCUCAU [Omei Ex3 Pseudoloop 10] (Eterna round: R97, puzzle: Exclusion 3)						101 nM		129 nM			
UUUUUGUCAGGAUAUACGUAGUAGAACAAUAGUACUACUACGUAGAAGGGACAUGAGGAUCACCCAUGUUCCUC [Fiskers Ex 4 Super stable 44 mod 16] (puzzle: Exclusion 4)										16 nM	
UUUUUGUGAGGAUAUCAGUAGUAGAACAAUAGUACUACUACUGAGAAGGUACAUGAGGAUCACCCAUGUUCCUC [Fiskers Ex 4 Super stable 44 mod 13] (puzzle: Exclusion 4)										19.5 nM	
